Measured values reported in publication PMC4797271, “The quorum-sensing regulator ComA from Bacillus subtilis activates transcription using topologically distinct DNA motifs”.

Biological target: T1, ComA (Bacillus subtilis, UniProt P14204 1-214)
T1 sequence: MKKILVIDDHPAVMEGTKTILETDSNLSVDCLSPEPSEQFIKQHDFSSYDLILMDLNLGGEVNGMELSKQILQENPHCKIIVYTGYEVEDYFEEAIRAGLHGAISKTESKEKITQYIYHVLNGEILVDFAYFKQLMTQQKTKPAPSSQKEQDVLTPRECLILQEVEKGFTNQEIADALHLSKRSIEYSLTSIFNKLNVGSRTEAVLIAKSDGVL
Experiment: EMSA; multiple complexes; EMSA: 10 mM HEPES pH 7.6, 2 mM MgCl2, 0.1 mM EDTA, 200 mM KCl, 5 mM DTT, 10% glycerol; 10 ng DNA in 15 ul, 20 min, room temperature
Details: protein: recombinant; tags: N-terminal His6 (from expression primer); chain copies: 2; label: 5' biotin on strand 1; blunt

B1: Ppel DR cluster (DR1-DR3) (dsDNA)
DNA 1: CGGCCTTTTGGTTTTTTTGCGGTCTTTGCGGTGGGATTTTGCAGAAT
DNA 2: ATTCTGCAAAATCCCACCGCAAAGACCGCAAAAAAACCAAAAGGCCG
B1: binds.
